Assays:
G3BP-1 F15A mutant = conditions: isothermal titration calorimetry; ref [28]; cited from earlier work
From the text: The importance of the hydrophobic FGDF-binding site of G3BP-1 has been validated in previous binding studies using mutated versions of G3BP in which Phe-33 and Phe-15 were substituted to tryptophan and alanine, respectively. Both Phe-33 and Phe-15 are localized centrally within the hydrophobic binding site that coordinates the phenylalanine residues of the FGDF motif (figure 2b,c).

[1] = biological target: nsP3-F3AC of virus SFV-F3AC (Semliki Forest virus)
[2] = biological target: GFP-nsP3-36-F3AC (Semliki Forest virus); experiment: MST
[3] = biological target: GFP-nsP3-36-F3AN (Semliki Forest virus); experiment: MST
[4] = biological target: GFP-nsP3-36 (GFP fused to the C-terminal 36 residues of SFV nsP3, C-terminal His tag) (Semliki Forest virus); experiment: MST
[5] = biological target: GFP-nsP3-36-F3ANC (Semliki Forest virus); experiment: MST

## DSGFSFGSK [nucleoporin (Nup)-derived peptide]
G3BP-1 F15A mutant
  binding affinity to F15A mutant of G3BP-1: five times lower binding affinity

## G3BP-1 (endogenous, BHK cells) (from UniProt A0A9J7JVX0 1-465) (natural protein)
[1]
  G3BP-1 in the IP relative to SFV WT (densitometry): 49.5%

## NTF2-like domain of human G3BP-1 (residues 1-139) (from UniProt Q13283 1-139) (domain or fragment)
[2]
  binding constant of the high-affinity binding event: 410 nM
  binding constant of the low-affinity binding event: 23 µM
[3]
  Kd: 5.8 µM
[4]
  binding constant of the high-affinity binding event: 150 nM
  binding constant of the low-affinity binding event: 4.1 µM
[5]
  Kd: 17 µM

— publication PMC4967826, “Combined structural, biochemical and cellular evidence demonstrates that both FGDF motifs in alphavirus nsP3 are required for efficient replication” (Open Biology, 2016)
